According to patent US20220387586A1 (Hoffmann-La Roche, published 2022):

T1: recombinant Human LAG-3 Fc Chimera Protein (R&D Systems, 2319-L3) (human, UniProt P18627 29-450)
T1 construct: Bought protein; also called huLAG3; not shown: Fc part of the chimera
T1 sequence: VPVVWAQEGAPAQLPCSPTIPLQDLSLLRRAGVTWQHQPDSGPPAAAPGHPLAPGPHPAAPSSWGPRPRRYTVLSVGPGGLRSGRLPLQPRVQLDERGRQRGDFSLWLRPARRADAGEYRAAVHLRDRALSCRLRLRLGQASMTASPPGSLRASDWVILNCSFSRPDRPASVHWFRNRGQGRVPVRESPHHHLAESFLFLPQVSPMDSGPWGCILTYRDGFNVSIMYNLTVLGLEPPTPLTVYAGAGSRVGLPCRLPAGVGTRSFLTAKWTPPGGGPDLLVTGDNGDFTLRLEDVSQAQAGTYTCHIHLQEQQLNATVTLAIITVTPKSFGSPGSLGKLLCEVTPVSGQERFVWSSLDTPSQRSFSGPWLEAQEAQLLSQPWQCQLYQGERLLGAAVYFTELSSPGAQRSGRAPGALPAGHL

T2: LAG3 on cells (recombinant CHO cells expressing Lag3) (human, UniProt P18627 29-525)
T2 construct: The cell ELISA paragraphs say only 'Lag3'; also called CHO-LAG3; Lag3 cells
T2 sequence: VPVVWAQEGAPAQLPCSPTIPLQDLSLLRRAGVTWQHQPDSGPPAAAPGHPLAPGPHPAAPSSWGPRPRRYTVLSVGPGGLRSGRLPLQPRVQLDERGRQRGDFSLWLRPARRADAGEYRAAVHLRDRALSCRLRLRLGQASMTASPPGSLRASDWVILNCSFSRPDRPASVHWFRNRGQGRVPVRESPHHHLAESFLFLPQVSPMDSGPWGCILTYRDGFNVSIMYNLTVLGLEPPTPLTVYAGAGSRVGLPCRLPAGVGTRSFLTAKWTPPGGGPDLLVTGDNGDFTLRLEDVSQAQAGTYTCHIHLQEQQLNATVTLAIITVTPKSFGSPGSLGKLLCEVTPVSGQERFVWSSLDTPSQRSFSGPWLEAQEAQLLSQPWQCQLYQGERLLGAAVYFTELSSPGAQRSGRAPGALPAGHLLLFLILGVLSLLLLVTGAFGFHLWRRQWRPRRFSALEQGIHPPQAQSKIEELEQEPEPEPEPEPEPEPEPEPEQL

T3: biotinylated-Lag3 (UniProt P18627 23-450, limits assumed, biotinylated)
T3 construct: Probably a human LAG3 ECD construct; also called Lag3 (MHCII/ELISA)
T3 sequence (looked up): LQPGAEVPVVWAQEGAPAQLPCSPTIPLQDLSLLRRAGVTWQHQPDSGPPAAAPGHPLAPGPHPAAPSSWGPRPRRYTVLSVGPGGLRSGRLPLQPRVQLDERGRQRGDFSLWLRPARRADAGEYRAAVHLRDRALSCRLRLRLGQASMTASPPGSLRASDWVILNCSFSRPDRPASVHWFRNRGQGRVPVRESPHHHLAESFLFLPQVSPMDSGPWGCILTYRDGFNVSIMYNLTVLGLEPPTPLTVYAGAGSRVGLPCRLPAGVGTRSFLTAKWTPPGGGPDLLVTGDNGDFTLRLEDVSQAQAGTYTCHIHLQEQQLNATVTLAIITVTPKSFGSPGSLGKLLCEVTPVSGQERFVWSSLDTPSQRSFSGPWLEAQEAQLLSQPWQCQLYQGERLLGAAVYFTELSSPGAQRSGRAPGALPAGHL

B1: PD1/LAG3 9010 (bispecific antibody, human IgG1, kappa, L234A L235A)
heavy: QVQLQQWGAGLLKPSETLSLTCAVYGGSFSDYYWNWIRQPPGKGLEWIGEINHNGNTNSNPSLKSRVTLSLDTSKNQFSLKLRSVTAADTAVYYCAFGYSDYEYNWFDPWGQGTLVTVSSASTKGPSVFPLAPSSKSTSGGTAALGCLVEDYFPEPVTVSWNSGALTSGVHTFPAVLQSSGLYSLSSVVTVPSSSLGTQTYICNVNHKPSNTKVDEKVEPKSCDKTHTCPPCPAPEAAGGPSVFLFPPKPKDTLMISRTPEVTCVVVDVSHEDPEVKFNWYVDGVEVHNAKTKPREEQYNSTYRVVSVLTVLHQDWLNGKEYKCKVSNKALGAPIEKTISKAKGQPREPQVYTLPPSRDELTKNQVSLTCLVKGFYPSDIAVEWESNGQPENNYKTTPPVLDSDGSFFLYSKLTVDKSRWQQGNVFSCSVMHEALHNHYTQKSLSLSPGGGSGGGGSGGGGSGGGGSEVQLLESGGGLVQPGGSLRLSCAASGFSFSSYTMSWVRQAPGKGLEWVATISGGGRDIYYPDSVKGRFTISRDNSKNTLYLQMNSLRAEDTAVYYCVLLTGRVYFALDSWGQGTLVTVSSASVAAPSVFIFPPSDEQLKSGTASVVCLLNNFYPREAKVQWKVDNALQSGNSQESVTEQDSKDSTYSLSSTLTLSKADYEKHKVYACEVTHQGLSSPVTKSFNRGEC
light 1: DIVMTQSPDSLAVSLGERATINCKASESVDTSDNSFIHWYQQKPGQSPKLLIYRSSTLESGVPDRFSGSGSGTDFTLTISSLQAEDVAVYYCQQNYDVPWTFGQGTKVEIKSSASTKGPSVFPLAPSSKSTSGGTAALGCLVKDYFPEPVTVSWNSGALTSGVHTFPAVLQSSGLYSLSSVVTVPSSSLGTQTYICNVNHKPSNTKVDKKVEPKSC
light 2: not shown
notes: 2+2 format
B2: PD1/LAG3 0222 (bispecific antibody, human IgG1, kappa, L234A L235A)
heavy 1: not shown
heavy 2: QVQLQQWGAGLLKPSETLSLTCAVYGGSFSDYYWNWIRQPPGKGLEWIGEINHNGNTNSNPSLKSRVTLSLDTSKNQFSLKLRSVTAADTAVYYCAFGYSDYEYNWFDPWGQGTLVTVSSASTKGPSVFPLAPSSKSTSGGTAALGCLVEDYFPEPVTVSWNSGALTSGVHTFPAVLQSSGLYSLSSVVTVPSSSLGTQTYICNVNHKPSNTKVDEKVEPKSCDKTHTCPPCPAPEAAGGPSVFLFPPKPKDTLMISRTPEVTCVVVDVSHEDPEVKFNWYVDGVEVHNAKTKPREEQYNSTYRVVSVLTVLHQDWLNGKEYKCKVSNKALGAPIEKTISKAKGQPREPQVCTLPPSRDELTKNQVSLSCAVKGFYPSDIAVEWESNGQPENNYKTTPPVLDSDGSFFLVSKLTVDKSRWQQGNVFSCSVMHEALHNHYTQKSLSLSPGK
light 1: QVQLQQSGPELVRPGVSVKISCKGSGYTFTDYAMHWVKQSHARTLEWIGVISTYSGDTNYNQKFKDKATMTVDKSSSTAYLELARMTSEDSAIYYCARLGITTGFAYWGQGTLVTVSAASVAAPSVFIFPPSDEQLKSGTASVVCLLNNFYPREAKVQWKVDNALQSGNSQESVTEQDSKDSTYSLSSTLTLSKADYEKHKVYACEVTHQGLSSPVTKSFNRGEC
light 2: not shown
notes: 1+1 CrossMAb Vh-VL; also called PD1(0069)/aLAG3(25F7) 1+1; PD1-0069/LAG3 25F7 (1 + 1)
B3: PD1/LAG3 0224 (bispecific antibody, human IgG1, kappa, L234A L235A)
heavy 1: not shown
heavy 2: B2 heavy 2
light 1: DVQLQESGPGLVKPSQSLSLTCTVTGYSITSDYAWNWIRQFPGDKLEWLGYITYSGFTNYNPSLKSRISISRDTSKNQFFLQLNSVATEDTATYYCARWHGSAPWYFDYWGRGTTLTVSSASVAAPSVFIFPPSDEQLKSGTASVVCLLNNFYPREAKVQWKVDNALQSGNSQESVTEQDSKDSTYSLSSTLTLSKADYEKHKVYACEVTHQGLSSPVTKSFNRGEC
light 2: not shown
notes: 1+1 CrossMAb Vh-VL; also called PD1(0098)/aLAG3(25F7) 1+1; PD1-0098/LAG3 25F7 (1 + 1)
B4: PD1-0078 (antibody, V domains shown)
VH: QVQLQQPGAELVKPGASVKMSCKASGYTFTSTWMHWVKQRPGQGLEWIGAIDPSDSYTTYNQKFKGKATLTVDTSSTTAYMQLSSLTSEDSAVYYCTRSPFDYWGQGTTLTVSS
VL: DIVMTQSHKFMSTSVGDRVSITCKASQDVSTAVAWYQQKPGQSPKLLIYSASYRYTGVPDRFTGSGSGTDFTFAISSVQAEDLAVYYCQQHYSHPFTFGSGTKLEIK

Tests used:
[1] = molecular target: T1, recombinant Human LAG-3 Fc Chimera …; experiment: ELISA on coated Human LAG-3 Fc Chimera (rel. EC50)
Experimental: After washing (3×90 μl/well with PBST-buffer) each well was incubated with 90 μl blocking buffer (PBS+2% BSA+0.05% Tween 20) for 1 h at room temperature. […] After washing (3×90 μl/well with PBST-buffer) 25 μl/well goat anti-Human Ig κ chain antibody-HRP conjugate (Milipore, AP502P) was added in a 1:2000 dilution and incubated at RT for 1 h. After washing (3×90 μl/well with PBST-buffer) 25 μl/well TMB substrate (Roche, 11835033001) was added and incubated for 2-10 min. Measurement took place on a Tecan Safire 2 instrument at 370/492 nm.

[2] = molecular target: T2, LAG3 on cells (recombinant CHO cells …); experiment: cell ELISA on recombinant CHO cells expressing Lag3 (rel. EC50)
Experimental: After washing (1×90 μl in PBST) cells were fixed by addition of 30 μl/well glutaraldehyde to a final concentration of 0.05% (Sigma Cat.No: G5882), 10 min at room temperature. After washing (3×90 μl/well with PBST-buffer) 25 μl/well goat anti-Human Ig κ chain antibody-HRP conjugate (Milipore, AP502P) was added in a 1:1000 dilution and incubated at RT for 1 h. After washing (3×90 μl/well with PBST-buffer) 25 μl/well TMB substrate (Roche, 11835033001) was added and incubated for 6-10 min. Measurement took place on a Tecan Safire 2 instrument at 370/492 nm.

[3] = molecular target: T3, biotinylated-Lag3; experiment: ELISA, inhibition of biotinylated-Lag3 binding to MHC-II on A375 cells (competitor MHC-II)
Experimental: 25 μl/well of A375 cells (10000 cells/well) were seeded into tissue culture treated 384-well plates (Corning, 3701) and incubated at 37° C. overnight. […] After washing (1×90 μl in PBST) cells were fixed by addition of 30 μl/well glutaraldehyde to a final concentration of 0.05% (Sigma Cat.No: G5882), 10 min at room temperature. After washing (3×90 μl/well with PBST-buffer) 25 μl/well Poly-HRP40-Streptavidin (Fitzgerald, 65R-S104PHRPx) was added in a 1:2000 or 1:8000 dilution and incubated at RT for 1 h. After washing (3×90 μl/well with PBST-buffer) 25 μl/well TMB substrate (Roche, 11835033001) was added and incubated for 2 to 10 min. Measurement took place on a Tecan Safire 2 instrument at 370/492 nm.

[4] = molecular target: T4, biotinylated PD1-ECD-AviHis (human, UniProt Q15116 25-170, biotinylated); experiment: ELISA on coated biotinylated PD1-ECD-AviHis (rel. EC50)
T4 construct: also called huPD1; hu PD1; not shown: Avi-His tag
T4 sequence (Q15116 25-170): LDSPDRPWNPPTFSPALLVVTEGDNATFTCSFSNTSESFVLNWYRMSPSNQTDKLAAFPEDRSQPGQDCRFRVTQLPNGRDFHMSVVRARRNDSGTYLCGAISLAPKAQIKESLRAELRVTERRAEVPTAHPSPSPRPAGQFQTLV
Experimental: After washing (3×90 μl/well with PBST-buffer) 25 μl/well goat-anti-human H+L-POD (JIR, JIR109-036-098) was added in 1:5000 dilution and incubated at RT for 1 h on a shaker. After washing (3×90 μl/well with PBST-buffer) 25 μl/well of TMB substrate (Roche, 11835033001) was added and incubated until OD 2-3. Measurement took place at 370/492 nm.

[5] = molecular target: T5, full-length human PD1 on cells (human, UniProt Q15116 25-288); experiment: cell ELISA on CHO-K1 cells expressing full-length human PD1 (rel. EC50)
T5 construct: also called CHO-PD1
T5 sequence (Q15116 25-288 limits assumed): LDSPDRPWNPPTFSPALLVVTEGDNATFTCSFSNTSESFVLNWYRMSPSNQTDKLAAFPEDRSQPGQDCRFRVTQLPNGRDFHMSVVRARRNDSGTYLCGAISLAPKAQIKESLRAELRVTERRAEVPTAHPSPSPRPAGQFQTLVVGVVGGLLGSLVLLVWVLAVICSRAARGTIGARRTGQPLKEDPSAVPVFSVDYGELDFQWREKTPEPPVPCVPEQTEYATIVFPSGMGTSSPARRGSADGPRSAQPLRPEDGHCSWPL
Experimental: (to avoid internalization). After washing carefully (1×90 μl/well PBST) cells were fixed by adding 30 μl/well 0.05% Glutaraldehyde (Sigma, Cat.No: G5882, 25%) diluted in 1×PBS-buffer and incubated for 10 min at RT. After washing (3×90 μl/well PBST) 25 μl/well secondary antibody was added for detection: goat-anti-human H+L-POD (JIR, JIR109-036-088)/Sheep-anti-mouse-POD (GE NA9310) followed by 1 h incubation at RT on shaker. After washing (3×90 μl/well PBST) 25 μl/well TMB substrate solution (Roche 11835033001) was added and incubated until OD 1.0-2.0. Plates were measured at 370/492 nm.

[6] = molecular target: T6, biotinylated cynoPD1-ECD-Biotin (cynomolgus, UniProt B0LAJ3 25-170, biotinylated; the site and any Avi or His tag are not stated in the passages shown); experiment: ELISA on coated cynoPD1-ECD-Biotin
T6 construct: also called cyPD1
T6 sequence (B0LAJ3 entry or part of it limits assumed): as the sequence (Q15116 25-170) above, with D2E, P10A, V19L, T35A, Q75R, T144A counted along it
Experimental: (§1) After washing (3×90 μl/well with PBST-buffer) 25 μl/well goat-anti-human H+L-POD (JIR, JIR109-036-088) was added in 1:1000 dilution and incubated at RT for 1 h on shaker. After washing (3×90 μl/well with PBST-buffer) 25 μl/well TMB substrate (Roche, 11835033001) was added and incubated until OD 2-3. Measurement took place at 370/492 nm.

[7] = molecular target: T4, biotinylated PD1-ECD-AviHis; experiment: PD-L2 replacing ELISA on coated PD1-ECD-AviHis; competitor PD-L2 Fc chimera
Experimental: as §1, with “109-036-088)” for “JIR109-036-088)”, “1:2000” for “1:1000”, “TMB (tetramethylbenzidine)” for “TMB”, “#11835033001)” for “11835033001)”

[8] = molecular target: T4, biotinylated PD1-ECD-AviHis; experiment: ELISA on coated biotinylated PD1-ECD-AviHis
Experimental: as §1, with “JIR109-036-088)/Sheep-anti-mouse-POD (GE Healthcare; NA9310)” for “JIR109-036-088)”, “1:2000/1:1000” for “1:1000”, “(Roche Catalogue No.” for “(Roche,”

| Binder | EC50 [1] [pM] | EC50 [2] [pM] | IC50 [3] [pM] | EC50 [4] [pM] | EC50 [5] [pM] | EC50 [6] [µg/mL] | IC50 [7] [µg/mL] | EC50 [8] [µg/mL] |
| --- | --- | --- | --- | --- | --- | --- | --- | --- |
| B1 | 50 | 480 | 520 | 40 | 360 |  |  |  |
| B2 | 1140 | 720 | 770 | 160 | 280 |  |  |  |
| B3 | 860 | 860 | 790 | 40 | 60 |  |  |  |
| B4 |  |  |  |  |  | 0.0224 | 0.086 | 0.0263 |
